“And” between values parts separate entries of the source, which are not always exact repeats. Equal entries are not always repeated. Numbered stars: 1 amine (or outer) side, 2 acyl side, 3 side chain; on linkers, the order of the positions; unused ones are H or OH. Bridge positions count the residues as written; N and C are the ends. Square brackets hold non-standard residues; d marks the D form. Primed or numbered codes have the meaning given here. Side chains are listed from the residue outwards. * marks the point of attachment. Ttds″ = 1,13-diamino-4,7,10-trioxatridecan-succinamic acid spacer, O=C(CCC(=O)[*:2])NCCCOCCOCCOCCCN[*:1]; TBMB(SCH2CH2NH-DOTA) = O=C(O)CN1CCN(CC(=O)O)CCN(CC(=O)NCCSCc2cc(C[*:1])cc(C[*:2])c2)CCN(CC(=O)O)CC1; Ttds = 1,13-diamino-4,7,10-trioxatridecan-succinamic acid, O=C(CCC(=O)[*:2])NCCCOCCOCCOCCCN[*:1]; DOTA = O=C(O)CN1CCN(CC(=O)O)CCN(CC(=O)*)CCN(CC(=O)O)CC1; Biotin = O=C1N[C@H]2[C@H](CS[C@H]2CCCCC(=O)*)N1; Bip = N[C@@H](Cc1ccc(-c2ccccc2)cc1)C(=O)O; Met(O2) = CS(=O)(=O)CC[C@H](N)C(=O)O; mXylylene = c1cc(C[*:1])cc(C[*:2])c1; Pentanesulfonyl = CCCCCS(=O)(=O)*; NMeE = CN[C@@H](CCC(=O)O)C(=O)O; 3Amb = NCc1cccc(C(=O)O)c1; 4Amb = NCc1ccc(C(=O)O)cc1; DOTA′ = not defined here; Nle = CCCC[C@H](N)C(=O)O; Nphe = O=C(O)CNCc1ccccc1; Apr = not defined here; Hexanoyl = CCCCCC(=O)*; AEEA = NCCOCCOCC(=O)O; Sar = CNCC(=O)O
Experiments:
[1] = biological target: Recombinant human FAP (R&D systems, #3715-SE) (human, UniProt Q12884 26-760); assay: cell-based or functional assay
[2] = biological target: T1, fibroblast activation protein (FAP) on FAP-expressing human WI-38 fibroblasts (human, UniProt Q12884 1-760); assay: competitive FACS, WI-38 cells, vs Cy5 tracer m3; A = pIC50 >8.0
T1 construct: also called human FAP

Binder	pIC50 Category (Activity) [1]	pIC50 Category (FACS) [2]
CPPTQFX (not fully specified; N-term Hex; X7 = AET (2-aminoethanethiol, no carboxyl group); Cys1/AET7 thioether-bridged by tMeBn carrying DOTA-AET, also called 3BP-3654) [Hex-[Cys(tMeBn(DOTA-AET))-Pro-Pro-Thr-Gln-Phe-AET]]	> 8 pIC50	> 8 pIC50
H-MCPPTEFCDHFRD[Ttds″]K(Biotin)-NH2 (linker 2-8 via mXylylene; SMILES CSCC[C@H](N)C(=O)N[C@H]1CSCc2cccc(c2)CSC[C@@H](C(=O)N[C@@H](CC(=O)O)C(=O)N[C@@H](Cc2c[nH]cn2)C(=O)N[C@@H](Cc2ccccc2)C(=O)N[C@@H](CCCNC(=N)N)C(=O)N[C@@H](CC(=O)O)C(=O)NCCCOCCOCCOCCCNC(=O)CCC(=O)N[C@@H](CCCCNC(=O)CCCC[C@@H]2SC[C@@H]3NC(=O)N[C@@H]32)C(N)=O)NC(=O)[C@H](Cc2ccccc2)NC(=O)[C@H](CCC(=O)O)NC(=O)[C@H]([C@@H](C)O)NC(=O)[C@@H]2CCCN2C(=O)[C@@H]2CCCN2C1=O, also called 3BP-2881) [H-Met-[Cys(3MeBn)-Pro-Pro-Thr-Glu-Phe-Cys]-Asp-His-Phe-Arg-Asp-Ttds-Lys(Bio)-NH2]	> 8 pIC50	> 8 pIC50
Hexanoyl-CPPTE([Apr-DOTA′])FCD-NH2 (linker 1-7 via mXylylene; reading uncertain; also: printed as Hex-[Cys(3MeBn)-Pro-Pro-Thr-Glu(NH-Apr-DOTA′)-Phe-Cys]-Asp-NH2) [Hex-[Cys(3MeBn)-Pro-Pro-Thr-Glu(NH-Apr-DOTA′)-Phe-Cys]-Asp-NH2]	≤ 6 pIC50	
Hexanoyl-C[Sar]PTQFC-OH (linker 1-7 via TBMB(SCH2CH2NH-DOTA); SMILES CCCCCC(=O)N[C@H]1CSCc2cc(CSCCNC(=O)CN3CCN(CC(=O)O)CCN(CC(=O)O)CCN(CC(=O)O)CC3)cc(c2)CSC[C@@H](C(=O)O)NC(=O)[C@H](Cc2ccccc2)NC(=O)[C@H](CCC(N)=O)NC(=O)[C@H]([C@@H](C)O)NC(=O)[C@@H]2CCCN2C(=O)CN(C)C1=O, also called 3BP-3678) [Hex-[Cys(tMeBn(DOTA-AET))-Nmg-Pro-Thr-Gln-Phe-Cys]-OH]	> 8 pIC50	> 8 pIC50
Hexanoyl-CPPT[Met(O2)]FC-NH2 (linker 1-7 via mXylylene; SMILES CCCCCC(=O)N[C@H]1CSCc2cccc(c2)CSC[C@@H](C(N)=O)NC(=O)[C@H](Cc2ccccc2)NC(=O)[C@H](CCS(C)(=O)=O)NC(=O)[C@H]([C@@H](C)O)NC(=O)[C@@H]2CCCN2C(=O)[C@@H]2CCCN2C1=O) [Hex-[Cys(3MeBn)-Pro-Pro-Thr-Moo-Phe-Cys]-NH2]	≤ 6 pIC50	
Hexanoyl-CPPTE[Bip]C-NH2 (linker 1-7 via mXylylene; SMILES CCCCCC(=O)N[C@H]1CSCc2cccc(c2)CSC[C@@H](C(N)=O)NC(=O)[C@H](Cc2ccc(-c3ccccc3)cc2)NC(=O)[C@H](CCC(=O)O)NC(=O)[C@H]([C@@H](C)O)NC(=O)[C@@H]2CCCN2C(=O)[C@@H]2CCCN2C1=O) [Hex-[Cys(3MeBn)-Pro-Pro-Thr-Glu-Bip-Cys]-NH2]	≤ 6 pIC50	
Hexanoyl-CPPT[NMeE]FC-NH2 (linker 1-7 via mXylylene; SMILES CCCCCC(=O)N[C@H]1CSCc2cccc(c2)CSC[C@@H](C(N)=O)NC(=O)[C@H](Cc2ccccc2)NC(=O)[C@H](CCC(=O)O)N(C)C(=O)[C@H]([C@@H](C)O)NC(=O)[C@@H]2CCCN2C(=O)[C@@H]2CCCN2C1=O) [Hex-[Cys(3MeBn)-Pro-Pro-Thr-Nme-Phe-Cys]-NH2]	≤ 6 pIC50	
{DOTA}-[Ttds][Nle]CPPTQFCD-NH2 (linker 3-9 via mXylylene; SMILES CCCC[C@H](NC(=O)CCC(=O)NCCCOCCOCCOCCCNC(=O)CN1CCN(CC(=O)O)CCN(CC(=O)O)CCN(CC(=O)O)CC1)C(=O)N[C@H]1CSCc2cccc(c2)CSC[C@@H](C(=O)N[C@@H](CC(=O)O)C(N)=O)NC(=O)[C@H](Cc2ccccc2)NC(=O)[C@H](CCC(N)=O)NC(=O)[C@H]([C@@H](C)O)NC(=O)[C@@H]2CCCN2C(=O)[C@@H]2CCCN2C1=O, also called 3BP-3401) [DOTA-Ttds-Nle-[Cys(3MeBn)-Pro-Pro-Thr-Gln-Phe-Cys]-Asp-NH2]	> 8 pIC50	> 8 pIC50
Hexanoyl-CPPTQXC-OH (linker 1-7 via TBMB(SCH2CH2NH-DOTA); not fully specified (residue 6); printed as Hex-[Cys(tMeBn(DOTA-AET))-Pro-Pro-Thr-Gln-Mpa-Cys]-OH, also called 3BP-3664) [Hex-[Cys(tMeBn(DOTA-AET))-Pro-Pro-Thr-Gln-Mpa-Cys]-OH]	> 8 pIC50	> 8 pIC50
Hexanoyl-CPPTAFC-NH2 (linker 1-7 via mXylylene; SMILES CCCCCC(=O)N[C@H]1CSCc2cccc(c2)CSC[C@@H](C(N)=O)NC(=O)[C@H](Cc2ccccc2)NC(=O)[C@H](C)NC(=O)[C@H]([C@@H](C)O)NC(=O)[C@@H]2CCCN2C(=O)[C@@H]2CCCN2C1=O) [Hex-[Cys(3MeBn)-Pro-Pro-Thr-Ala-Phe-Cys]-NH2]	≤ 6 pIC50	
{DOTA}-[Ttds][Nle]CPPTEFCD[4Amb]R-NH2 (linker 3-9 via mXylylene; SMILES CCCC[C@H](NC(=O)CCC(=O)NCCCOCCOCCOCCCNC(=O)CN1CCN(CC(=O)O)CCN(CC(=O)O)CCN(CC(=O)O)CC1)C(=O)N[C@H]1CSCc2cccc(c2)CSC[C@@H](C(=O)N[C@@H](CC(=O)O)C(=O)NCc2ccc(C(=O)N[C@@H](CCCNC(=N)N)C(N)=O)cc2)NC(=O)[C@H](Cc2ccccc2)NC(=O)[C@H](CCC(=O)O)NC(=O)[C@H]([C@@H](C)O)NC(=O)[C@@H]2CCCN2C(=O)[C@@H]2CCCN2C1=O, also called 3BP-3321) [DOTA-Ttds-Nle-[Cys(3MeBn)-Pro-Pro-Thr-Glu-Phe-Cys]-Asp-Pamb-Arg-NH2]	> 8 pIC50	> 8 pIC50
Hexanoyl-CPPAEFC-NH2 (linker 1-7 via mXylylene; SMILES CCCCCC(=O)N[C@H]1CSCc2cccc(c2)CSC[C@@H](C(N)=O)NC(=O)[C@H](Cc2ccccc2)NC(=O)[C@H](CCC(=O)O)NC(=O)[C@H](C)NC(=O)[C@@H]2CCCN2C(=O)[C@@H]2CCCN2C1=O) [Hex-[Cys(3MeBn)-Pro-Pro-Ala-Glu-Phe-Cys]-NH2]	≤ 6 pIC50	
Hexanoyl-CPPTEFCD[3Amb]R-NH2 (linker 1-7 via mXylylene; SMILES CCCCCC(=O)N[C@H]1CSCc2cccc(c2)CSC[C@@H](C(=O)N[C@@H](CC(=O)O)C(=O)NCc2cccc(C(=O)N[C@@H](CCCNC(=N)N)C(N)=O)c2)NC(=O)[C@H](Cc2ccccc2)NC(=O)[C@H](CCC(=O)O)NC(=O)[C@H]([C@@H](C)O)NC(=O)[C@@H]2CCCN2C(=O)[C@@H]2CCCN2C1=O, also called 3BP-3324) [Hex-[Cys(3MeBn)-Pro-Pro-Thr-Glu-Phe-Cys]-Asp-Mamb-Arg-NH2]	> 8 pIC50	> 8 pIC50
Hexanoyl-CAPTEFC-NH2 (linker 1-7 via mXylylene; SMILES CCCCCC(=O)N[C@H]1CSCc2cccc(c2)CSC[C@@H](C(N)=O)NC(=O)[C@H](Cc2ccccc2)NC(=O)[C@H](CCC(=O)O)NC(=O)[C@H]([C@@H](C)O)NC(=O)[C@@H]2CCCN2C(=O)[C@H](C)NC1=O) [Hex-[Cys(3MeBn)-Ala-Pro-Thr-Glu-Phe-Cys]-NH2]	6.1 pIC50 and 7 pIC50	
Pentanesulfonyl-CPPTEFC-OH (linker 1-7 via TBMB(SCH2CH2NH-DOTA); SMILES CCCCCS(=O)(=O)N[C@H]1CSCc2cc(CSCCNC(=O)CN3CCN(CC(=O)O)CCN(CC(=O)O)CCN(CC(=O)O)CC3)cc(c2)CSC[C@@H](C(=O)O)NC(=O)[C@H](Cc2ccccc2)NC(=O)[C@H](CCC(=O)O)NC(=O)[C@H]([C@@H](C)O)NC(=O)[C@@H]2CCCN2C(=O)[C@@H]2CCCN2C1=O, also called 3BP-3691) [Pentyl-SO2-[Cys(tMeBn(DOTA-AET))-Pro-Pro-Thr-Glu-Phe-Cys]-OH]	7.1 pIC50 and 8 pIC50	> 8 pIC50
Hexanoyl-CPPTEAC-NH2 (linker 1-7 via mXylylene; SMILES CCCCCC(=O)N[C@H]1CSCc2cccc(c2)CSC[C@@H](C(N)=O)NC(=O)[C@H](C)NC(=O)[C@H](CCC(=O)O)NC(=O)[C@H]([C@@H](C)O)NC(=O)[C@@H]2CCCN2C(=O)[C@@H]2CCCN2C1=O) [Hex-[Cys(3MeBn)-Pro-Pro-Thr-Glu-Ala-Cys]-NH2]	6.1 pIC50 and 7 pIC50	
Hexanoyl-CPPTEFC-NH2 (linker 1-7 via TBMB(SCH2CH2NH-DOTA); SMILES CCCCCC(=O)N[C@H]1CSCc2cc(CSCCNC(=O)CN3CCN(CC(=O)O)CCN(CC(=O)O)CCN(CC(=O)O)CC3)cc(c2)CSC[C@@H](C(N)=O)NC(=O)[C@H](Cc2ccccc2)NC(=O)[C@H](CCC(=O)O)NC(=O)[C@H]([C@@H](C)O)NC(=O)[C@@H]2CCCN2C(=O)[C@@H]2CCCN2C1=O, also called 3BP-3653) [Hex-[Cys(tMeBn(DOTA-AET))-Pro-Pro-Thr-Glu-Phe-Cys]-NH2]	> 8 pIC50	> 8 pIC50
Hexanoyl-CPPTE[Nphe]C-NH2 (linker 1-7 via mXylylene; SMILES CCCCCC(=O)N[C@H]1CSCc2cccc(c2)CSC[C@@H](C(N)=O)NC(=O)CN(Cc2ccccc2)C(=O)[C@H](CCC(=O)O)NC(=O)[C@H]([C@@H](C)O)NC(=O)[C@@H]2CCCN2C(=O)[C@@H]2CCCN2C1=O) [Hex-[Cys(3MeBn)-Pro-Pro-Thr-Glu-Nphe-Cys]-NH2]	≤ 6 pIC50	
Hexanoyl-CPPTE([Apr-AEEA-DOTA′])FCD-NH2 (linker 1-7 via mXylylene; reading uncertain; also: printed as Hex-[Cys(3MeBn)-Pro-Pro-Thr-Glu(NH-Apr-O2Oc-DOTA′)-Phe-Cys]-Asp-NH2) [Hex-[Cys(3MeBn)-Pro-Pro-Thr-Glu(NH-Apr-O2Oc-DOTA′)-Phe-Cys]-Asp-NH2]	6.1 pIC50 and 7 pIC50	
Hexanoyl-CPPTEFCD-NH2 (linker 1-7 via mXylylene; SMILES CCCCCC(=O)N[C@H]1CSCc2cccc(c2)CSC[C@@H](C(=O)N[C@@H](CC(=O)O)C(N)=O)NC(=O)[C@H](Cc2ccccc2)NC(=O)[C@H](CCC(=O)O)NC(=O)[C@H]([C@@H](C)O)NC(=O)[C@@H]2CCCN2C(=O)[C@@H]2CCCN2C1=O) [Hex-[Cys(3MeBn)-Pro-Pro-Thr-Glu-Phe-Cys]-Asp-NH2]	> 8 pIC50	

From US20230212549A1 (3B PHARMACEUTICALS, published 2023)
